Reference: publication doi:10.1101/2023.05.03.539133 (bioRxiv, 2023)

Legend:
SEC = target: the molecule itself; experiment: SEC
AUC = target: the molecule itself; experiment: AUC

B1: inner membrane cytochrome c ImcH from Geobacter sulfurreducens (recombinant, C-terminal 6x His-tag) (natural protein, UniProt Q747K6 1-507, looked up)
chain: MTLRKTAGYLWNPISLIGFLLAVVATGLIIAFIAMEMITGIDHPYIGLLVYFAFPGMLILGLILVPIGAWRVRNQRRTEVPEEVPPYPRVDFNDPHKRRLFIFFVLASVIFVLIVSVASILGFEFTESTTFCGELCHVVMEPEHKAWQGSPHARVKCVECHVGPGAEWYVKAKLSGLRQVWAVLTHSYHFPIATPIENLRPARDTCEQCHWPEKFYSGRQRVFYHYAPNKENTPREINMLIKIGGTPKSPHAMGIHWHIGTEVTYIARDRKRLDIPYVAVKQKDGSIVEYMDTEKPLTREEIAKAEKRRMDCIDCHNRPTHIYRSPAREMDEHIVSGQIDAGLPYIKKVAVEILEQPYKSKEEAHAAIEAKLPEYYAKNFPEVAKVKAAAINQAVAHVKDIYSRNFFPRMKVTWSTYPNHIGHFYTPGCFRCHDGKHKTSTGKIISKDCNMCHEMIGQKGENIPEGKVVKEFVHPADIGDALYNVNCSDCHMAAAEDSAGGEGPGKH
modifications: seven c-type hemes (CXXCH heme binding motifs)
How did the “stoichiometry N” value (SEC) turn out when B1 was run?
The value was 2.

And the “stoichiometry N” value (AUC)?
The value was 4.
